How the values were obtained:
[1] = target: nonmutated (wild-type) FX (UniProt P00742); assay: cell-based or functional assay
[2] = target: mutated factor X (human FX in which amino acid 194 has been mutated from Arg to Tyr) (human) (UniProt P00742); assay: cell-based or functional assay

Substance: Russel's viper venom (RVV)
- coagulation time (recalcification time in FX-deficient plasma) [1]: 50 s

Substance: prostate-specific antigen (PSA) (from UniProt P07288 25-261) (enzyme)
- coagulation time (recalcification time in FX-deficient plasma) [2]: 50 s

— patent publication US6670147
